Source: patent US20050227296A1, “Method for indentifying integrin antagonists” (The General Hospital Corporation, a Massachusetts …, priority 1988, published 2005)

Legend:
[1] = target: complement iC3b on erythrocytes (EAiC3b) (human) (UniProt P01024); test: fluid-phase rA-domain against EAiC3b binding to immobilized rA-domain
[2] = target: recombinant Ancylostoma caninum neutrophil adhesion inhibitor (NIF) (Ancylostoma caninum); test: competition: fluid-phase r11bA against biotinylated rNIF binding to human neutrophils, FACS
[3] = target: recombinant Ancylostoma caninum neutrophil adhesion inhibitor (NIF) (Ancylostoma caninum); test: competition: fluid-phase r11bA against biotinylated rNIF binding to immobilized r11bA, plate assay
[4] = target: CD11b/CD18 on human neutrophils (human) (UniProt P05107); test: time course of biotinylated NIF binding to neutrophils at 4 C, FACS
[5] = target: CD11b/CD18 on human neutrophils (human) (UniProt P05107); test: dissociation of biotinylated rNIF from washed neutrophils at 4 C, FACS
[6] = target: recombinant CD11b A domain (human) (UniProt P11215); test: Scatchard analysis of biotinylated rNIF binding to immobilized rA-domain
[7] = target: CD11b/CD18 on human neutrophils (human) (UniProt P05107); test: biotinylated rNIF on f-met-leu-phe activated against resting neutrophils, FACS
[8] = target: recombinant human CD11b/CD18 expressed in COS cells (human) (UniProt P05107); test: rNIF against EAiC3b binding to recombinant CD11b/CD18 on COS cells, fluorescence
[9] = target: CD11b/CD18 on human neutrophils (human) (UniProt P05107); test: Scatchard plot, biotinylated rNIF on resting or activated neutrophils at 4 C, FACS

Chain of complement iC3b on erythrocytes (EAiC3b) (human) (P01024 23-667 limits assumed, chain 1 of 3): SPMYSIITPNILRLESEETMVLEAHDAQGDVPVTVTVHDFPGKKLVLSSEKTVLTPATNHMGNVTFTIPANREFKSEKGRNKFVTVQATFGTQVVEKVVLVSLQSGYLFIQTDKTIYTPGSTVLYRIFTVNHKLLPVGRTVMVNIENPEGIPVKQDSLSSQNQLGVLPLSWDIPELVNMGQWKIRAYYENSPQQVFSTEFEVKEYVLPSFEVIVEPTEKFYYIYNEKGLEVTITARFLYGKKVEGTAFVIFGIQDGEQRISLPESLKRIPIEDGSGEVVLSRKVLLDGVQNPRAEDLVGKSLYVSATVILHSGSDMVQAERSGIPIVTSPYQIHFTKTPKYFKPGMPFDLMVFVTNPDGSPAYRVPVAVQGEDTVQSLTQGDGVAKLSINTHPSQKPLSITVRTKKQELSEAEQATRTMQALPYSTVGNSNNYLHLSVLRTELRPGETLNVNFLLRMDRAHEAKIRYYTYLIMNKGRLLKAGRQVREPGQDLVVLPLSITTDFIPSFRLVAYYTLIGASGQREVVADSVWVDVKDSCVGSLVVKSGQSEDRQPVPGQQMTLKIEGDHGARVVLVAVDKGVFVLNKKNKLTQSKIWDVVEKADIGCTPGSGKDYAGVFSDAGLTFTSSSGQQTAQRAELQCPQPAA
Chain of complement iC3b on erythrocytes (EAiC3b) (human) (P01024 749-1303 limits assumed, chain 2 of 3): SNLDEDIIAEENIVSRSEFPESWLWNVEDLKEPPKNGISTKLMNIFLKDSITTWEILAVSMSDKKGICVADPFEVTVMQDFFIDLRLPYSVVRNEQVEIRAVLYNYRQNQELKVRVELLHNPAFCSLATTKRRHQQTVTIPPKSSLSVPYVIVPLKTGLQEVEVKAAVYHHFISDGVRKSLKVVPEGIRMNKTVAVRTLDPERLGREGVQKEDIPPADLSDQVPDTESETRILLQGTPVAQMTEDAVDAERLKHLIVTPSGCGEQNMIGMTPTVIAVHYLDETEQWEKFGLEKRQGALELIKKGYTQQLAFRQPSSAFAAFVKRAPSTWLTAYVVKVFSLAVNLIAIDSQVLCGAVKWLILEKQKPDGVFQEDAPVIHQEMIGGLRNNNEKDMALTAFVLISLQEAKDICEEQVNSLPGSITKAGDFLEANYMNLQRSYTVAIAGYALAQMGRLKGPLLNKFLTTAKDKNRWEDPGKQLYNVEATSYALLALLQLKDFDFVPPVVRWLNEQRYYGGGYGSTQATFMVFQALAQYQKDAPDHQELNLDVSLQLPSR
Chain of complement iC3b on erythrocytes (EAiC3b) (human) (P01024 1321-1663 limits assumed, chain 3 of 3): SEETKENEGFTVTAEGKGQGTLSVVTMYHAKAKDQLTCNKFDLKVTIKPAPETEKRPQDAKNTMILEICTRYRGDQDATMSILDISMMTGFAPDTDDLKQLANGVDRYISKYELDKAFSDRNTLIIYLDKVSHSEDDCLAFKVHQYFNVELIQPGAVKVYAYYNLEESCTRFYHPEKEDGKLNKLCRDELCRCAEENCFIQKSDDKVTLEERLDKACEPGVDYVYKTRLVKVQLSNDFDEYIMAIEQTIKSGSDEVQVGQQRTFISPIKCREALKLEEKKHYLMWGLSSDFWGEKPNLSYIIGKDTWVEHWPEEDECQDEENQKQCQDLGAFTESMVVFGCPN

Substance | IC50 [1] | IC50 [2] | IC50 [3] | t1/2 of association [4] | t1/2 of dissociation [5] | Kd [6] | fold increase in NIF binding to activated vs resting cells [7] | IC50 [8] | concentration for complete inhibition [8] | Kd [9]
recombinant CD11b A domain (from UniProt P11215 144-337) (receptor) | 1000 µM | 0.001 µM | 0.001 µM |  |  |  |  |  |  | 
recombinant Ancylostoma caninum neutrophil adhesion inhibitor (NIF) (ligand) |  |  |  | 0.25 h | 7.6 h | 0.001 µM | 12 fold | 0.005 µM | 3 mg/mL | 0.00035 to 0.0013 µM
